Measured values published in publication doi:10.1101/2020.03.02.972281 (bioRxiv, 2020).
Blank lines part the entries; values can stand above or below the molecule they belong to.

Experiments:
transferrin [1] = biological target: T1, transferrin (human, UniProt P02787 20-698); experiment: SPR
transferrin [2] = biological target: T1, transferrin; experiment: native gel or EMSA

T1 sequence (P02787 20-698): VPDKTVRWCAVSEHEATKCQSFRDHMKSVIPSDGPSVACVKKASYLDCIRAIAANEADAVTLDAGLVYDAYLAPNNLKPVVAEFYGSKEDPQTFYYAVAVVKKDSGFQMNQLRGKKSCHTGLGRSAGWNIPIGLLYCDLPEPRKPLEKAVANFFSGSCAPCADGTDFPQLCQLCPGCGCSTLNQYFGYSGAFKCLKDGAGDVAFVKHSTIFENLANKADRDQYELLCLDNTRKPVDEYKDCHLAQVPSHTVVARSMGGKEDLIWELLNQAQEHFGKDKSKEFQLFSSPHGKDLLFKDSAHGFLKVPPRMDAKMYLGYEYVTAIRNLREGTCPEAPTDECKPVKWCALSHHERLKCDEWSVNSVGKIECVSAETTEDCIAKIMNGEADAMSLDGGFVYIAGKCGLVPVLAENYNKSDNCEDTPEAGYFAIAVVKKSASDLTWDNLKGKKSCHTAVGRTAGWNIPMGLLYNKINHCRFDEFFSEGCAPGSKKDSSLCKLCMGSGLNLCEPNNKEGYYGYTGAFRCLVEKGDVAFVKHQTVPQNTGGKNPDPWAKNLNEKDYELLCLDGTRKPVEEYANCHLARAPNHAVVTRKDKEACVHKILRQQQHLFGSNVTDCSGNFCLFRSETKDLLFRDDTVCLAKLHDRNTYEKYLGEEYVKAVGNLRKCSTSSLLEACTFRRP

Kd (transferrin [1]): 14 nM
koff (transferrin [1]): 0.00033 s⁻¹
kon (transferrin [1]): 24000 M⁻¹ s⁻¹
Molecule: CD14 (SEA518Mu-48T, Uscn) (from UniProt P08571 20-345) (natural protein)

binding result (transferrin [1]): binds
Molecule: ELDDEDFRCVCNFSEPQPDWSEAFQCVSAVEVEIHAGGLN [LPS binding region of CD14 N-terminus (CD14N)]

binding result (transferrin [2]): binds
B1: human CD14 (natural protein, UniProt P08571 20-345, looked up)
chain: TTPEPCELDDEDFRCVCNFSEPQPDWSEAFQCVSAVEVEIHAGGLNLEPFLKRVDADADPRQYADTVKALRVRRLTVGAAQVPAQLLVGALRVLAYSRLKELTLEDLKITGTMPPLPLEATGLALSSLRLRNVSWATGRSWLAELQQWLKPGLKVLSIAQAHSPAFSCEQVRAFPALTSLDLSDNPGLGERGLMAALCPHKFPAIQNLALRNTGMETPTGVCAALAAAGVQPHSLDLSHNSLRATVNPSAPRCMWSSALNSLNLSFAGLEQVPKGLPAKLRVLDLSCNRLNRAPQPDELPEVDNLTLDGNPFLVPGTALPHEGSMN
